Assay results from US20250115678A1 (AstraZeneca / MedImmune, published 2025).
Changes are numbered by the printed parent chain.

B1: anti-GPC3 Fab (Fab, V domains shown)
VH: QVQLVQSGAEVKKPGASVKVSCKASGYTFTDYEMHWVRQAPGQGLEWMGALDPKTGDTAYSQKFKGRVTLTADKSTSTAYMELSSLTSEDTAVYYCTRFYSYTYWGQGTLVTVSS
VL: DVVMTQSPLSLPVTPGEPASISCRSSQSLVHSNRNTYLHWYLQKPGQSPQLLIYKVSNRFSGVPDRFSGSGSGTDFTLKISRVEAEDVGVYYCSQNTHVPPTFGQGTKLEIK
B2: anti-CD8 VHH (VHH)
VHH: EVQLLESGGGLVQPGGSLRLSCAASGFTFDDYAIGWFRQAPGKEREGVSCIRVSDGSTYYADSVKGRFTISRDNSKNTLYLQMNSLRAEDTAVYYCAAGSLYTCVQSIVWPARPYYDMDYWGQGTLV
notes: also called CD8 VHHb
B3: TPP-46957 (other)
light: not shown
heavy 1: EVQLVQSGAEVKKPGASVKVSCKASGYKFSSYWIEWVKQAPGQGLEWIGEILPGSDTTNYAQQFQDRVTFTSDTSISTAYMELSRLRSDDTAVYYCARDRGNYRAWFGYWGQGTLVTVSSASTKGPSVFPLAPSSKSTSGGTAALGCLVKDYFPEPVTVSWNSGALTSGVHTFPAVLQSSGLYSLSSVVTVPSSSLGTQTYICNVNHKPSNTKVDKRVEPKSCDKTGGSEVQLVESGGGLVQPGGSLRLSCVASGDVHKINFLGWYRQAPGKEREKVAHISIGDQTDYADSAKGRFTISRDESKNMVYLQMNSLKPEDTAVYFCRAFSRIYPYDYWGQGTLVTVSSGGGGSTHTCPPCPAPPVAGPSVFLFPPKPKDTLMISRTPEVTCVVVDVKHEDPEVKFNWYVDGVEVHNAKTKPREEQYNSTYRVVSVLTVLHQDWLNGKEYKCKVSNKALPAPIEKTISKAKGQPREPQVCTLPPSREEMTKNQVSLSCAVKGFYPSDIAVEWESNGQPENNYKTTPPVLDSDGSFFLVSKLTVDKSRWQQGNVFSCSVMHEALHNRFTQKSLSLSPGK
heavy 2: EVQLVQSGAEVKKPGASVKVSCKASGYKFSSYWIEWVKQAPGQGLEWIGEILPGSDTTNYAQQFQDRVTFTSDTSISTAYMELSRLRSDDTAVYYCARDRGNYRAWFGYWGQGTLVTVSSASTKGPSVFPLAPSSKSTSGGTAALGCLVKDYFPEPVTVSWNSGALTSGVHTFPAVLQSSGLYSLSSVVTVPSSSLGTQTYICNVNHKPSNTKVDKRVEPKSCDKTGGSEVQLLESGGGLVQPGGSLRLSCAASGFTFTDYAIGWFRQAPGKEREGVSCIRVSDGSTYYADSVKGRFTISRDSSKNTLYLQMNSLRAEDTAVYYCAAGSLYTCVQSIVWPARPYYDMDYWGQGTLVTVSSGGGGSTHTCPPCPAPPVAGPSVFLFPPKPKDTLMISRTPEVTCVVVDVKHEDPEVKFNWYVDGVEVHNAKTKPREEQYNSTYRVVSVLTVLHQDWLNGKEYKCKVSNKALPAPIEKTISKAKGQPREPQVYTLPPCREEMTKNQVSLWCLVKGFYPSDIAVEWESNGQPENNYKTTPPVLDSDGSFFLYSKLTVDKSRWQQGNVFSCSVMHEALHNHYTQKSLSLSPGK
notes: T-cell engager in the CD8/TCR format: 2x LRRC15 Fab, 1x TCR VHH, 1x CD8 VHH
B4: TPP-46960 (other)
light: not shown
heavy 1: B3 heavy 1 with Q63K
heavy 2: B3 heavy 2 with Q63K
notes: T-cell engager in the CD8/TCR format: 2x LRRC15 Fab, 1x TCR VHH, 1x CD8 VHH; Residue 55 of L-CDR2 is N
B5: TPP-46958 (other)
light: not shown
heavy 1: B3 heavy 1 with T57A, Q63K
heavy 2: B3 heavy 2 with T57A, Q63K
notes: as for B3

Key:
[1] = molecular target: T1, soluble recombinant human GPC3 protein (human, UniProt P51654 25-559, biotinylated in the biolayer interferometry assay); assay: biolayer interferometry (Octet), biotinylated antigen on streptavidin biosensors
T1 construct: also called GPC3 human
Experimental: (§1) Binding kinetics were measured by biolayer interferometry on an OCTET 384 instrument. Streptavidin (SA) biosensors were loaded with biotinylated protein antigens (ACRO Biosystems, Newark, DE) in PBS pH 7.2, 1 mg/mL BSA, 0.05% (v/v) TWEEN (Kinetic buffer). The loaded biosensors were washed in the same buffer before carrying out association and dissociation measurements with various antibodies for the indicated times. Kinetic parameters (Kₒₙ and Koff) and affinities (KD) were calculated from a non-linear fit of the data using the OCTET software v.12.2.1.24.

[2] = molecular target: T2, soluble recombinant human CD8a protein (human, UniProt P01732 22-182, biotinylated); assay: biolayer interferometry (Octet RED384), biotinylated antigen on streptavidin biosensors
T2 construct: also called CD8α Human
Experimental: as §1

[3] = molecular target: T3, human EphB6 on transiently transfected Ad293 cells (human, UniProt O15197 32-1021); assay: Flow cytometry on Ad293 cells transiently transfected with human EphB6 (off-target binding)
T3 construct: whole, on cells; also called EphB6-expressing cells
T3 sequence (looked up): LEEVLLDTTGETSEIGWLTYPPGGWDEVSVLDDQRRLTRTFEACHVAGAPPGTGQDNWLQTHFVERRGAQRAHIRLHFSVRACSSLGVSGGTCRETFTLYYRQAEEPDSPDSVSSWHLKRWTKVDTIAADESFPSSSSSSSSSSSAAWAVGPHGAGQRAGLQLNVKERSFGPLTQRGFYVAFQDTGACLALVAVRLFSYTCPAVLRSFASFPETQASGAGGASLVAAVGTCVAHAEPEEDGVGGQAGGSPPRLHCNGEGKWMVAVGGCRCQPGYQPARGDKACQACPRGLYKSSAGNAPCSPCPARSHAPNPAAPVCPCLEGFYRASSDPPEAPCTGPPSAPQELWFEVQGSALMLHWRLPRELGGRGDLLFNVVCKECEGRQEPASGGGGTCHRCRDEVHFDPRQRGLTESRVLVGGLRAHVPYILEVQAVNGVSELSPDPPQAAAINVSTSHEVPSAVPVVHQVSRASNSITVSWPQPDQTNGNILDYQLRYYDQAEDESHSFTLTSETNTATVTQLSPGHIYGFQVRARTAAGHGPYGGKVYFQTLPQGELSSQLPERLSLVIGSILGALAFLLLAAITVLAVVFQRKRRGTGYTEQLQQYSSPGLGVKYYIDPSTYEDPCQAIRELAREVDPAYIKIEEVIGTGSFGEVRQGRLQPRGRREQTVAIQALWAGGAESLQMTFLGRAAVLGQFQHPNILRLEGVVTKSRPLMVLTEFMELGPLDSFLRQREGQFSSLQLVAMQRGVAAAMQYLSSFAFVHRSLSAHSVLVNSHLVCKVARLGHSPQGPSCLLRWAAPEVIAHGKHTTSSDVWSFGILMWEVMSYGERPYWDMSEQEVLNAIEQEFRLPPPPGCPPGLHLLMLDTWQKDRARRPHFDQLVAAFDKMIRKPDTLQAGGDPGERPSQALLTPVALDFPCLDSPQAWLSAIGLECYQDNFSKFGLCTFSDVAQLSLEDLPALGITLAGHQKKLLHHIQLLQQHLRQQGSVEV
From the text: Ad293 cells were transiently transfected with a plasmid expressing human EphB6.

[4] = molecular target: T4, human LRRC15 recombinant extracellular domain protein (human, UniProt Q8TF66 22-538); assay: SPR single-cycle kinetics (Biacore 8K+), TCE captured on Protein G chip, LRRC15 ECD as analyte, 1:1 fit, average of 3 or 4 replicates
T4 construct: extracellular domain; also called LRRC15 human
T4 sequence (looked up): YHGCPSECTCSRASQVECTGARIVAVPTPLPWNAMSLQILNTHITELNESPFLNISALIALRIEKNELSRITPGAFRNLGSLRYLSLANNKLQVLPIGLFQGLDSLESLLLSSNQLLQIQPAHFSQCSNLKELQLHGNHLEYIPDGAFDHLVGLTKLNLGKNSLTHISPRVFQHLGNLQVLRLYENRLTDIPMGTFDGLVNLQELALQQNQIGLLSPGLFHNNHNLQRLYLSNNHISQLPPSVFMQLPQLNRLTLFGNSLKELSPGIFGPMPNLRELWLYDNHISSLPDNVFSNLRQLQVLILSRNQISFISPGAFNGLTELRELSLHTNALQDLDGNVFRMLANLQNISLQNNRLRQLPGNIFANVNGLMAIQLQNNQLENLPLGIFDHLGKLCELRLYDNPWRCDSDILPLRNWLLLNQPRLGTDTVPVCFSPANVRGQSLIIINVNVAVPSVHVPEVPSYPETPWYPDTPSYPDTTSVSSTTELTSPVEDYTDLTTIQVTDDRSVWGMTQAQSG
From the text: (§2) The fully corrected binding data were globally fitted to a 1:1 binding model to determine the KD using the Biacore™ Insight Evaluation Software (CYTIVA). Coloured sensorgram trace represents the raw data and black line the global 1:1 fit to that data. Values for kinetics parameters is shown in Table 8 are averages for 3 or 4 replicate sets of measurements.

[5] = molecular target: T5, cyno LRRC15 recombinant extracellular domain protein (cyno, UniProt G7NYR2 22-538); assay: as above
T5 construct: extracellular domain; also called LRRC15 cyno
From the text: as §2

T2 sequence (P01732 22-182 limits assumed): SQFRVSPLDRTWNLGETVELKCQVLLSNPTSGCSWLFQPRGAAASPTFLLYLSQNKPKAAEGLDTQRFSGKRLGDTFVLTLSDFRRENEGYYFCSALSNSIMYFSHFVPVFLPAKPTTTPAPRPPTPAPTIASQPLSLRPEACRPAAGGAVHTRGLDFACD
T1 sequence (P51654 25-559 limits assumed): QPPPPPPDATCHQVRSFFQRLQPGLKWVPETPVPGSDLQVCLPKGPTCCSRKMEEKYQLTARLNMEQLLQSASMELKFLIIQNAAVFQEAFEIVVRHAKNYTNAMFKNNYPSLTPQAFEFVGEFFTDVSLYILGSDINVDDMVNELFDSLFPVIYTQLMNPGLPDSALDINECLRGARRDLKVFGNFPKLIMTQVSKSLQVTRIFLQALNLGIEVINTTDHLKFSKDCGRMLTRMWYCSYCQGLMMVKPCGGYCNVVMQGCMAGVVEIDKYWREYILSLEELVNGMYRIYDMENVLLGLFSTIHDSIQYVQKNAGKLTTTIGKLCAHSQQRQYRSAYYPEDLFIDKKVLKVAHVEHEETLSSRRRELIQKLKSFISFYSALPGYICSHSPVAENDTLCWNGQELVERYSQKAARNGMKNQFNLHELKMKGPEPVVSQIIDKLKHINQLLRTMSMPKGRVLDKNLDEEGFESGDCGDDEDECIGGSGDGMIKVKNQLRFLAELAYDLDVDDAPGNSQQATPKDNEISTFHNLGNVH

Binder | binding result [3] | Kd [4] [nM] | Kd [5] [nM] | also measured
B1 |  |  |  | Kd [1]: 1.87 nM; koff [1]: 0.000422 s⁻¹; kon [1]: 226000 M⁻¹ s⁻¹
B2 |  |  |  | Kd [2]: 55.3 nM; koff [2]: 0.0286 s⁻¹; kon [2]: 517000 M⁻¹ s⁻¹
B3 | binds | 2.27 | 4.55 | 
B4 | binds | 0.98 | 2.24 | 
B5 | binds | 3.1 | 6.4 | 
